Like-named read-outs stand apart in the source and are kept apart here.
Columns and labels:
Assay in all cases: MST
[1] = biological target: NanoTemper RED-labeled FVIIa (FVIIa-R) (human) (UniProt P08709)
[2] = biological target: NanoTemper RED-labeled FVIIa (FVIIa-R) (human) (UniProt P08709); remark: listed apart in the source
[3] = biological target: NanoTemper RED-labeled FVIIa (FVIIa-R) (human) (UniProt P08709); remark: listed apart in the source
[4] = biological target: NanoTemper RED-labeled FVIIa (FVIIa-R) (human) (UniProt P08709); remark: listed apart in the source
[5] = biological target: NanoTemper RED-labeled FVIIa (FVIIa-R) (human) (UniProt P08709); remark: listed apart in the source
[6] = biological target: NanoTemper RED-labeled FVIIa (FVIIa-R) (human) (UniProt P08709); remark: listed apart in the source
[7] = biological target: NanoTemper RED-labeled FVIIa (FVIIa-R) (human) (UniProt P08709); remark: listed apart in the source
[8] = biological target: NanoTemper RED-labeled FVIIa (FVIIa-R) (human) (UniProt P08709); remark: listed apart in the source
[9] = biological target: NanoTemper RED-labeled FVIIa (FVIIa-R) (human) (UniProt P08709); remark: listed apart in the source
[10] = biological target: NanoTemper RED-labeled FVIIa (FVIIa-R) (human) (UniProt P08709); remark: listed apart in the source
[11] = biological target: NanoTemper RED-labeled FVIIa (FVIIa-R) (human) (UniProt P08709); remark: listed apart in the source
[12] = biological target: NanoTemper RED-labeled FVIIa (FVIIa-R) (human) (UniProt P08709); remark: listed apart in the source
[13] = biological target: NanoTemper RED-labeled FVIIa (FVIIa-R) (human) (UniProt P08709); remark: listed apart in the source

UniProt P08709, sequence (P08709 61-212, chain 1 of 2): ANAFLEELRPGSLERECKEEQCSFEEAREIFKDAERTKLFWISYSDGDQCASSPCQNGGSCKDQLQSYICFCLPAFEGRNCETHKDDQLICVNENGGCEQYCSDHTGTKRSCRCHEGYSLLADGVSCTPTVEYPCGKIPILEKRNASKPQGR
UniProt P08709, sequence (P08709 213-466, chain 2 of 2): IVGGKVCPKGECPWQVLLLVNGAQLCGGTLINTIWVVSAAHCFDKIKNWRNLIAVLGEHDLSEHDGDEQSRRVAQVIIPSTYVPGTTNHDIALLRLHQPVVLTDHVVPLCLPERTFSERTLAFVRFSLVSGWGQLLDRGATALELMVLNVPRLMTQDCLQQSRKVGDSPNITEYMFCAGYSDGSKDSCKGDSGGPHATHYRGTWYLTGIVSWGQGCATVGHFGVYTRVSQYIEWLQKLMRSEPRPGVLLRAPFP

For “gCΔ457t (soluble recombinant HSV1 glycoprotein C) (from UniProt P10228 25-511) (domain or fragment)”, which Kd [1] is on record?
Its Kd is 2000 nM.

What about the Kd [2] of the same substance?
Its Kd is 1300 nM.

And the Kd [3]?
Its Kd is 2200 nM.

And the Kd [4]?
Its Kd is 2900 nM.

And the Kd [5]?
Its Kd is 800 nM.

And the Kd [6]?
The Kd was 900 nM.

And the Kd [7]?
The Kd was greater than 12000 nM.

And the Kd [8]?
The Kd was 1000 nM.

And the Kd [9]?
Its Kd is 1600 nM.

And the Kd [10]?
Its Kd is greater than 13000 nM.

And the Kd [11]?
The Kd was 600 nM.

And the Kd [12]?
The Kd was 2700 nM.

What about the Kd [13] of the same substance?
The Kd was 400 nM.
